Experimental findings from US20250188154A1 are described below.

The target of test [1] is SARS-CoV-2 D614G live virus spike (SARS-CoV-2) (UniProt P0DTC2). Briefly: cell-based or functional assay.
Test [2] deals with SARS-CoV-2 spike D614G on pseudovirus (VRC7480.D614G) (SARS-CoV-2) (UniProt P0DTC2). Nature of the test: cell-based or functional assay.

On to DH1047 (antibody), for which the live virus neutralization IC50 in test [1] came to 0.059 µg/mL. Also, in test [2], the Pseudovirus neutralization IC50 is 0.09 µg/mL, the Pseudovirus neutralization IC80 stood at 0.36 µg/mL and the Pseudovirus neutralization MPI is 100%.
With DH1042 (antibody), in test [2], the Pseudovirus IC50 is 0.011 µg/mL, the Pseudovirus IC80 is 0.053 µg/mL, the Pseudovirus MPI amounted to 100% and the Pseudovirus neutralization IC50 came to 0.011 µg/mL. Moreover, in test [2], the Pseudovirus neutralization IC80 amounted to 0.053 µg/mL and the Pseudovirus neutralization MPI turned out to be 100%.
